This data set is described as follows: protein stability index of a GFP-peptide fusion (GPS, HEK-293T) (PSI 1-6); higher = more stable. Particulars: c terminus: a fixed tail appended.

± gives the standard deviation.
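Note: 24-mer peptide tiles fused after GFP, lentivirally expressed, FACS-sorted into six equal bins by GFP/DsRed ratio, decoded by Illumina sequencing, PSI is the read-weighted mean bin number.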

Take PTHTPRPADFSLGSLPGPGQTSGA [VENTX]: the protein stability index runs as follows: (treatment: DMSO) 4.44 ± 0.18; (treatment: MLN4924 1 uM, 8 h) 4.5 ± 0.2.

In the case of PTQQDVLRTRVKTTGIVETHFTFK [GNAI1], the protein stability index (treatment: DMSO) worked out at 3.05 ± 0.42 and the protein stability index (treatment: MLN4924 1 uM, 8 h) came out at 3.51 ± 0.37.

The sequence PVSCCLGLLLESLVPFIVNDNITN [DYNC2LI1] gave a protein stability index (treatment: DMSO) of 2.57 ± 0.94 and a protein stability index (treatment: MLN4924 1 uM, 8 h) of 2.79 ± 0.58.

For PWLCGESFTLADVSLAVTLHRLKF [GDAP1], the protein stability index is, setting by setting: (treatment: DMSO) 2.65 ± 0.43; (treatment: MLN4924 1 uM, 8 h) 2.35 ± 0.41.

Turning to PYGVYKKQQKDPSEEAAVLQYASL [ATE1], the protein stability index runs as follows: (treatment: DMSO) 3.62 ± 0.23; (treatment: MLN4924 1 uM, 8 h) 3.8 ± 0.5.

The sequence QAAKLLGSMEQVSSHFLEQTLDKK [INTS4] had a protein stability index (treatment: DMSO) of 3.78 ± 0.12 and a protein stability index (treatment: MLN4924 1 uM, 8 h) of 3.88 ± 0.36.

Turning to QALQHVQASCDEAHKMKFSDLFSL [INTS3], the protein stability index is, setting by setting: (treatment: DMSO) 2.86 ± 0.39; (treatment: MLN4924 1 uM, 8 h) 2.95 ± 0.33.

In the case of QASEREAPSIEQRLQEVRESIRRA [FCHSD1], the protein stability index (treatment: DMSO) came out at 5.06 ± 0.35 and the protein stability index (treatment: MLN4924 1 uM, 8 h) is 5 ± 0.31.

As for QCGETMKETVNVKTVCGYYTSAGT [GMCL1], the protein stability index was 3.7 ± 0.22 (treatment: DMSO) and 3.77 ± 0.28 (treatment: MLN4924 1 uM, 8 h).

In the case of QDACQAQAREKELLELQSQQACTH [CCDC89], the protein stability index by setting is: (treatment: DMSO) 4.91 ± 0.29; (treatment: MLN4924 1 uM, 8 h) 4.9 ± 0.2.

QDEPRQGCQPEDRRRRIIINVGGI [KCNG1] returned a protein stability index (treatment: DMSO) of 3.92 ± 0.33 and a protein stability index (treatment: MLN4924 1 uM, 8 h) of 4.02 ± 0.2.

Consider QEEAIAQFPYVEFTGRDSITCLTC [TMEM106C], for which the protein stability index was 2.5 ± 0.21 (treatment: DMSO) and 2.57 ± 0.24 (treatment: MLN4924 1 uM, 8 h).

With QESYENVDSLESHIPSQEVPGTQV [ZNF263], the protein stability index turned out to be 5.42 ± 0.22 (treatment: DMSO) and 5.28 ± 0.22 (treatment: MLN4924 1 uM, 8 h).

On to QGKLIKRQRLAKNDRGDHYHWKDL [EFHC1], for which the protein stability index came out at 3.36 ± 0.48 (treatment: DMSO) and 3.71 ± 0.31 (treatment: MLN4924 1 uM, 8 h).

As to QGPPMVPPYQGGPPRPPMGMRPPV [ZNF207], the protein stability index reads like this: (treatment: DMSO) 4.31 ± 0.12; (treatment: MLN4924 1 uM, 8 h) 4.18 ± 0.081.

For the sequence QGSRGLTDQAIFYAVTPLPWCPHL [HDAC6], the protein stability index (treatment: DMSO) was found to be 2.64 ± 0.66 and the protein stability index (treatment: MLN4924 1 uM, 8 h) is 2.41 ± 0.46.

With QHKDQTAALPLAAEETANLPPSPP [MAP2], the protein stability index reads like this: (treatment: DMSO) 5.49 ± 0.086; (treatment: MLN4924 1 uM, 8 h) 5.45 ± 0.12.

With QIEYEYKLAQALHEMREQHDAQVR [LMNB1], the protein stability index by setting is: (treatment: DMSO) 3.83 ± 0.38; (treatment: MLN4924 1 uM, 8 h) 3.83 ± 0.34.

Take QIFFGRRKDMIAEKLAPSEITEEL [ZNF396]: the protein stability index is 3.85 ± 0.14 (treatment: DMSO) and 3.74 ± 0.13 (treatment: MLN4924 1 uM, 8 h).

As to QIKAIRGSNEYTEGPSVVKRPAPR [SPRY1], the protein stability index was 4.05 ± 0.09 (treatment: DMSO) and 4.47 ± 0.3 (treatment: MLN4924 1 uM, 8 h).

QKILCAKAENARLVVNIDNAKLAS [KRT34] displayed a protein stability index (treatment: DMSO) of 3.49 ± 0.2 and a protein stability index (treatment: MLN4924 1 uM, 8 h) of 3.56 ± 0.11.

QLGTLAGSKYYNVEAMYCYLRCIQ [SMG5] displayed a protein stability index (treatment: DMSO) of 2.68 ± 0.29 and a protein stability index (treatment: MLN4924 1 uM, 8 h) of 2.3 ± 0.41.

For the sequence QLKIAANPFAKGFRENGRNCKRER [TBX6], the protein stability index runs as follows: (treatment: DMSO) 3.33 ± 0.25; (treatment: MLN4924 1 uM, 8 h) 3.47 ± 0.33.

Turning to QLQHEKAELEQHLEQEQEFQVNKL [CCDC6], the protein stability index is, setting by setting: (treatment: DMSO) 5.35 ± 0.19; (treatment: MLN4924 1 uM, 8 h) 5.41 ± 0.24.

For QLSELRSEMECQNQEYKMLLDIKT [KRT13], the protein stability index (treatment: DMSO) was determined as 4.09 ± 0.12 and the protein stability index (treatment: MLN4924 1 uM, 8 h) is 4 ± 0.29.

On to QMKQKVQSLYQEVFGRLRDENGRP [NFE2L1], for which the protein stability index reads like this: (treatment: DMSO) 2.66 ± 0.35; (treatment: MLN4924 1 uM, 8 h) 3.65 ± 0.48.

Consider QNIYKCIMLKNISQDERLDVLLTL [IQUB], for which the protein stability index is 2.5 ± 0.098 (treatment: DMSO) and 2.61 ± 0.51 (treatment: MLN4924 1 uM, 8 h).

Turning to QNSRNKRAVQGPEETVTQDCLQLI [TNFSF13B], the protein stability index runs as follows: (treatment: DMSO) 4.55 ± 0.057; (treatment: MLN4924 1 uM, 8 h) 4.68 ± 0.12.

As to QPCNPPAPAGDKGFQPPSPSLRPR [DMRTC1], the protein stability index turned out to be 5.27 ± 0.14 (treatment: DMSO) and 5.15 ± 0.19 (treatment: MLN4924 1 uM, 8 h).

On to QPKKPEDEPQETAYRTQVSSCCLH [PKD2L1], for which the protein stability index runs as follows: (treatment: DMSO) 4.88 ± 0.27; (treatment: MLN4924 1 uM, 8 h) 4.96 ± 0.05.

In the case of QPLEVKNNSNLQRMGSSESTDSGF [CDC25A], the protein stability index (treatment: DMSO) is 5.28 ± 0.23 and the protein stability index (treatment: MLN4924 1 uM, 8 h) stood at 5.06 ± 0.49.

As to QPPLSATVTLTVAVADSIPQVLAD [PCDHGA10], the protein stability index reads like this: (treatment: DMSO) 2.56 ± 0.24; (treatment: MLN4924 1 uM, 8 h) 2.7 ± 0.36.

Consider QQAMSLAILRVIRLVRVFRIFKLS [KCNA3], for which the protein stability index came out at 2.69 ± 0.26 (treatment: DMSO) and 2.63 ± 0.44 (treatment: MLN4924 1 uM, 8 h).

As for QQEVVVAGSSLPTSSKVNATVPSN [ACBD3], the protein stability index by setting is: (treatment: DMSO) 5.12 ± 0.34; (treatment: MLN4924 1 uM, 8 h) 4.98 ± 0.23.

Regarding QQIEEQRVQVQVVERAQQVAVQEQ [FLOT1], the protein stability index was found to be 5.17 ± 0.41 (treatment: DMSO) and 5.03 ± 0.32 (treatment: MLN4924 1 uM, 8 h).

As for QQVDTNISVILPTVHEVDIFRCFC [DENND6A], the protein stability index by setting is: (treatment: DMSO) 1.98 ± 0.31; (treatment: MLN4924 1 uM, 8 h) 2.24 ± 0.47.

For the origin of these results see the supplement of paper PMC10567573.
